According to patent US20250075002A1 (BEIGENE SWITZERLAND, published 2025):
Like-named read-outs stand apart in the source and are kept apart here.

What was measured:
[1] = biological target: T1, human CD16B (NA2) on NK92mi cells (human, UniProt O75015 17-200); experiment: flow cytometry on NK92mi/CD16B (NA2) cells
T1 construct: also called NK92mi/CD16B (NA2); NK92mi/CD16B NA2
T1 chain: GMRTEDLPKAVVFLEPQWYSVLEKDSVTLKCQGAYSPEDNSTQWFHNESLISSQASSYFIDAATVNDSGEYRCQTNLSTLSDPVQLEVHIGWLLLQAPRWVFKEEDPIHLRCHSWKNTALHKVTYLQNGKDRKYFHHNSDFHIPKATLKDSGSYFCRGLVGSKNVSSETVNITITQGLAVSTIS

[2] = biological target: T2, human CD16A (V158) on NK92mi cells (human, UniProt P08637 17-254); experiment: flow cytometry on NK92mi/CD16A cells (V158 by paragraph 201)
T2 construct: NK92mi cells co-transduced with CD16A (V158) and FcRgamma cDNAs; also called NK92mi/CD16A V158; NK92mi/CD16A

[3] = biological target: T3, human CD16B (NA1) on NK92mi cells (human, UniProt O75015 17-200); experiment: flow cytometry on NK92mi/CD16B (NA1) cells; fit not meaningful
T3 construct: also called NK92mi/CD16B (NA1); NK92mi/CD16B NA1
T3 chain: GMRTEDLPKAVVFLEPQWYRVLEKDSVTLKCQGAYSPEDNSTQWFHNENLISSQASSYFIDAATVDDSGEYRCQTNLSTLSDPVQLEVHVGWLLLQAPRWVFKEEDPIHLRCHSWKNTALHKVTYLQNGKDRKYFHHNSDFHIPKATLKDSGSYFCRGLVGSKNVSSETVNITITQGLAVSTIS

human CD16B-His6 (SH) = biological target: T4, human CD16B-His6 (SH) (human, UniProt O75015 17-200); experiment: antigen ELISA, coated Human CD16B (SH), HRP anti-human IgG
T4 construct: Bought ECD fragment; also called CD16B SH allotype; human CD16B (SH); not shown: six-histidine tag (His6)

cyno CD16-His6 [4] = biological target: T5, cyno CD16-His6 (cyno, UniProt Q8SPW2 17-208); experiment: antigen ELISA, coated Cyno CD16, HRP anti-human IgG; one concentration (paragraph 202 prints 1 mg/ml)
T5 construct: Bought ECD fragment; not shown: six-histidine tag (His6)

human CD16A-His6 (V158) [5] = biological target: T6, human CD16A-His6 (V158) (human, UniProt P08637 17-208); experiment: antigen ELISA, coated Human CD16A (V158), HRP anti-human IgG; one concentration (paragraph 202 prints 1 mg/ml)
T6 construct: Bought (Sino Biologics) ECD fragment; also called CD16A 158V; human CD16A (V158); not shown: six-histidine tag (His6)

[6] = biological target: T7, human CD16A (F158) on NK92mi cells (human, UniProt P08637 17-254); experiment: flow cytometry on NK92mi/CD16A 158F cells
T7 construct: NK92mi cells co-transduced with CD16A (F158) and FcRgamma cDNAs; also called NK92mi/CD16A F158

[7] = biological target: T3, human CD16B (NA1) on NK92mi cells; experiment: flow cytometry on NK92mi/CD16B (NA1) cells
human CD16A-His6 (V158) [8] = biological target: T6, human CD16A-His6 (V158); experiment: SPR; VHH-Fc captured on anti-human Fc surface
human CD16A-His6 (F158) [9] = biological target: T8, human CD16A-His6 (F158) (human, UniProt P08637 17-208); experiment: SPR; VHH-Fc captured on anti-human Fc surface
T8 construct: Bought ECD fragment; also called human CD16A (F158); not shown: six-histidine tag (His6)

human CD16A-His6 (V158) [10] = biological target: T6, human CD16A-His6 (V158); experiment: SPR; VHH-Fc captured on anti-human Fc surface; remark: listed apart in the source
human CD16A-His6 (F158) [11] = biological target: T8, human CD16A-His6 (F158); experiment: SPR; VHH-Fc captured on anti-human Fc surface; remark: listed apart in the source
cyno CD16-His6 [12] = biological target: T5, cyno CD16-His6; experiment: SPR; VHH-Fc captured on anti-human Fc surface
[13] = biological target: T7, human CD16A (F158) on NK92mi cells; experiment: flow cytometry on live NK92mi/CD16A 158F cells
[14] = biological target: T3, human CD16B (NA1) on NK92mi cells; experiment: flow cytometry on live NK92mi/CD16B NA1 cells, 300 nM VHH-Fc
[15] = biological target: T1, human CD16B (NA2) on NK92mi cells; experiment: flow cytometry on live NK92mi/CD16B NA2 cells, 300 nM VHH-Fc
[16] = biological target: T3, human CD16B (NA1) on NK92mi cells; experiment: flow cytometry, NK92mi/CD16B (NA1) against NK92mi/CD16A cells (weaker on CD16B)
[17] = biological target: T7, human CD16A (F158) on NK92mi cells; experiment: flow cytometry, biotinylated VHH-Fc on NK92mi/CD16A 158F cells, without human IgG1 (CB6)
human CD16A-His6 (V158) [18] = biological target: T6, human CD16A-His6 (V158); experiment: SPR; VHH-Fc captured on anti-human Fc surface; row head prints 'KD (nM)', koff/kon shows M
human CD16A-His6 (F158) [19] = biological target: T8, human CD16A-His6 (F158); experiment: as above
human CD16A-His6 (V158) [20] = biological target: T6, human CD16A-His6 (V158); experiment: as above; remark: listed apart in the source
human CD16A-His6 (F158) [21] = biological target: T8, human CD16A-His6 (F158); experiment: as above; remark: listed apart in the source
cyno CD16-His6 [22] = biological target: T5, cyno CD16-His6; experiment: SPR; VHH-Fc captured on anti-human Fc surface; column head prints 'KD (nM)', koff/kon shows M
[23] = biological target: T7, human CD16A (F158) on NK92mi cells; experiment: flow cytometry, biotinylated VHH-Fc on NK92mi/CD16A 158F cells, with 10 mg/ml human IgG1 CB6 as competitor
human CD16B-His6 (NA1) [24] = biological target: T9, human CD16B-His6 (NA1) (human, UniProt O75015 17-200); experiment: SPR; VHH-Fc captured on anti-human Fc surface; row head prints 'KD (nM)', taken as M like the rest of the table
T9 construct: Bought ECD fragment; also called CD16B NA1; human CD16B (NA1); not shown: six-histidine tag (His6)
T9 chain: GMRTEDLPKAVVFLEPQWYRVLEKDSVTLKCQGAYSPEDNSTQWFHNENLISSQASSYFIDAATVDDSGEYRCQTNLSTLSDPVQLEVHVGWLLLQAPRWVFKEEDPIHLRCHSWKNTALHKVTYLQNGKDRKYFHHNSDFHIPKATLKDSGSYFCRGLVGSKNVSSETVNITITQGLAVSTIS

human CD16B-His6 (NA2) [25] = biological target: T10, human CD16B-His6 (NA2) (human, UniProt O75015 17-200); experiment: as above
T10 construct: Bought ECD fragment; also called CD16B NA2; human CD16B (NA2); not shown: six-histidine tag (His6)
T10 chain: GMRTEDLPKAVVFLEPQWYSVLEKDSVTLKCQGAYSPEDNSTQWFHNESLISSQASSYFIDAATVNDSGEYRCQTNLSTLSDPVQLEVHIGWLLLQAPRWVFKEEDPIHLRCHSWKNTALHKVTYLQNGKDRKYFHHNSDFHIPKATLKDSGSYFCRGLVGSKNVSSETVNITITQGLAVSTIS

human CD16B-His6 (NA1) [26] = biological target: T9, human CD16B-His6 (NA1); experiment: as above
human CD16B-His6 (NA2) [27] = biological target: T10, human CD16B-His6 (NA2); experiment: as above

T5 sequence (Q8SPW2 17-208): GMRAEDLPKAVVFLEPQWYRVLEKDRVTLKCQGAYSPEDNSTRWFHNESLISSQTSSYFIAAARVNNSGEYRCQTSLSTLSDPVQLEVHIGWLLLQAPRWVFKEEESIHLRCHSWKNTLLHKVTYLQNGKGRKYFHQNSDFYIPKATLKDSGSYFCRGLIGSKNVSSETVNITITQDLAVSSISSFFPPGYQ

B1: LS21 (scFv)
scFv: EVQLVQSGAEVKKPGESLKVSCKASGYTFTSYYMHWVRQAPGQGLEWMGIINPSGGSTSYAQKFQGRVTMTRDTSTSTVYMELSSLRSEDTAVYYCARGSAYYYDFADYWGQGTLVTVSSGGGGSGGGGSGGGGSQPVLTQPSSVSVAPGQTATISCGGHNIGSKNVHWYQQRPGQSPVLVIYQDNKRPSGIPERFSGSNSGNTATLTISGTQAMDEADYYCQVWDNYSVLFGGGTKLTVL
EC50 [1]: 0.136 µg/mL | EC50 [2]: 1.04 µg/mL | EC50 [3]: ~155000 µg/mL | binding result (human CD16B-His6 (SH)): no binding | binding result (cyno CD16-His6 [4]): binds | binding result (human CD16A-His6 (V158) [5]): binds

B2: BG523P (VHH-Fc) (VHH)
chain: QVQLVESGGGVVQPGGSLTLSCEASGRTFGSYAVGWFRQALGRGREFVAAIRRSDGTTDYVDSVKGRFTISRDNAKNTVYLQMNSLKPEDTAVYYCAASDSDYEPLGDYWGQGTQVTVSSEPKSSDKTHTCPPCPAPPAAGPSVFLFPPKPKDTLMISRTPEVTCVVVDVSHEDPEVKFNWYVDGVEVHNAKTKPREEQYNSTYRVVSVLTVLHQDWLNGKEYKCKVSNKALAAPIEKTISKAKGQPREPQVYTLPPSREEMTKNQVSLTCLVKGFYPSDIAVEWESNGQPENNYKTTPPVLDSDGSFFLYSKLTVDKSRWQQGNVFSCSVMHEALHNHYTQKSLSLSPGK
notes: Alpaca anti-CD16A VHH fused to a C-terminal human IgG1 mf Fc tag (VHH-Fc); also called parental clone
EC50 [6]: 10.6 nM | EMAX (MFI) [6]: 9920 MFI | EC50 [7]: 9.52 µg/mL | EC50 [1]: 28.9 µg/mL | koff (human CD16A-His6 (V158) [8]): 0.000113 s⁻¹ | kon (human CD16A-His6 (V158) [8]): 276000 M⁻¹ s⁻¹ | koff (human CD16A-His6 (F158) [9]): 0.000128 s⁻¹ | kon (human CD16A-His6 (F158) [9]): 319000 M⁻¹ s⁻¹ | koff (human CD16A-His6 (V158) [10]): 6.22e-05 s⁻¹ | kon (human CD16A-His6 (V158) [10]): 280000 M⁻¹ s⁻¹ | koff (human CD16A-His6 (F158) [11]): 7.88e-05 s⁻¹ | kon (human CD16A-His6 (F158) [11]): 224000 M⁻¹ s⁻¹ | koff (cyno CD16-His6 [12]): 8.09e-05 s⁻¹ | kon (cyno CD16-His6 [12]): 280000 M⁻¹ s⁻¹ | EC50 [13]: 15.1 nM | EC50 [2]: 0.242 µg/mL | Binding signal at 300 nM (MFI) [14]: 577 MFI | Binding signal at 300 nM (MFI) [15]: 65 MFI | fold change of EC50 against CD16A binding [16]: ~40 fold | EC50 [17]: 1.19 nM | EMAX (MFI) [17]: 22100 MFI | Kd (human CD16A-His6 (V158) [18]): 0.408 nM | Kd (human CD16A-His6 (F158) [19]): 0.402 nM | Kd (human CD16A-His6 (V158) [20]): 0.222 nM | Kd (human CD16A-His6 (F158) [21]): 0.353 nM | Kd (cyno CD16-His6 [22]): 0.289 nM | EC50 [23]: 6.57 nM | EMAX (MFI) [23]: 21300 MFI | Kd (human CD16B-His6 (NA1) [24]): 1700 nM | Kd (human CD16B-His6 (NA2) [25]): 4260 nM | Kd (human CD16B-His6 (NA1) [26]): 1760 nM | Kd (human CD16B-His6 (NA2) [27]): 4950 nM
